Assay results from the supplement of paper PMC12667976.

B1: library; numbered along this chain (parent)
chain: MATDAALRRLLRLHRTEIAVAVDSAFPLLHALADHDVVPEDKFQETLHLKEKEGCPQAFHALLSWLLTQDSTAILDFWRVLFKDYNLERYGRLQPILDSFPKDVDLSQPRKGRKPPAVPKALVPPPRLPTKRKASEEARAAAPAALTPRGTASPGSQLKAKPPKKPESSAEQQRLPLGNGIQTMSASVQRAVAMSSGDVPGARGAVEGILIQQVFESGGSKKCIQVGGEFYTPSKFEDSGSGKNKARSSSGPKPLVRAKGAQGAAPGGGEARLGQQGSVPAPLALPSDPQLHQKNEDECAVCRDGGELICCDGCPRAFHLACLSPPLREIPSGTWRCSSCLQATVQEVQPRAEEPRPQEPPVETPLPPGLRSAGEEVRGPPGEPLAGMDTTLVYKHLPAPPSAAPLPGLDSSALHPLLCVGPEGQQNLAPGARCGVCGDGTDVLRCTHCAAAFHWRCHFPAGTSRPGTGLRCRSCSGDVTPAPVEGVLAPSPARLAPGPAKDDTASHEPALHRDDLESLLSEHTFDGILQWAIQSMARPAAPFPS

Variants of: B1
Assay: AIRE transcriptional activation functional score (insulin promoter-GFP; nonsense median 0, synonymous median 1) (normalised score); higher = higher AIRE activity (more reporter activation)
Conditions: with insulin promoter-GFP reporter in HEK293
Procedure, shortened: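 Using Bxb1 recombinase, codon-optimized NNN-codon libraries for three AIRE regions were inserted into Flp-In T-REx HEK293 landing-pad cells with an insulin core promoter-GFP reporter. After integrants (mCherry+, BFP−) were sorted at day 7 and expanded for 7 days, the top 10% GFP and unselected integrant populations underwent tile-sequencing. Functional scores are wild-type-subtracted enrichments of variants in select over non-select samples. A cutoff of 10 counts per million in non-select applied, and values were rescaled (nonsense median 0, synonymous median 1) and averaged over biological replicates.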

AIRE transcriptional activation functional score, by site and new letter:
C314: S 1.07; P 1.1; Q 0.418; L 0.847; T 1.14; I 1.08; D 0.933; A 0.983; H 0.752; Y 0.725; G 0.862; M 1.12; F 0.96; V 1.13; R 0.842; K 1; E 0.893; W 0.709
I309: A 0.827; W 1.55; H 0.916; V 1.14; S 1.35; R 0.877; Q 0.905; K 0.472; E 1.43; Y 1.19; F 1.18; D 0.964; N 1.23; L 0.505; P 1.07; G 1.11; M 0.866; T 0.922; C 0.782
R316: V 0.904; P 1.14; M 1.04; L 0.804; K 1.03; N 0.525; E 1.28; H 1.36; Q 1.05; I 1.26; Y 1.36; W 1.28; S 1.19; C 1.22; F 0.43; T 1.06; D 1.42; A 0.77; G 1.33
F318: N 1.45; S 1.19; L 1.05; G 1.39; Y 1.07; H 1.42; C 1.32; Q 1.31; P 1.21; I 1.12; D 1.02; M 1.54; K 1.39; T 1.31; V 0.874; W 0.907; E 1.34; R 1.47; A 0.96
L320: G 0.879; V 0.976; Y 1.09; E 1.22; I 0.729; S 0.896; P 0.869; R 1.16; H 0.847; Q 0.88; C 0.84; F 1.19; K 0.922; W 0.685; D 1.14; T 1.13; M 1.03; A 1.19; N 0.948
A317: H 1.06; S 0.689; I 0.854; K 0.241; F 0.813; G 0.974; M 0.781; P 1.23; D 1.25; R 0.922; Q -0.307; T 0.717; Y 0.503; L 1.01; C 1.28; E 1.37; N 0.865; W 1.53; V 0.416
H319: F 0.514; V 0.662; P 1.4; W 0.996; D 1.24; N 1.26; G 1.28; L 0.424; A 1.16; C 1.43; I 0.263; M 0.921; Q 1.44; S 1.31; K 1.15; R 1.03; T 1.38; E 1.39; Y 0.961
C322: N 0.919; I 0.327; T 1.21; H 1.5; S 1.41; A 1.16; R 0.999; F 0.737; E 1.77; P 1.25; L 0.951; Q 1.2; G 1.24; K 1.21; D 1.77; M 1.1
G306: K 0.811; Q 1.14; I 0.377; L 0.492; M 0.451; A 0.976; Y 0.924; N 1.18; S 0.862; E 1.14; H 1.11; P 0.361; R 0.689; T 1.15; F 0.459; C 0.922; W 0.744; D 0.954; V 0.712
